Experimental data reported in paper doi:10.1101/2024.04.16.588673 (bioRxiv, 2024).

B1: receptor activity-modifying protein 2 (RAMP2), C-tagged Cerulean (natural protein)
chain: QPLPTTGTPGSEGGTVKNYETAVQFCWNHYKDQMDPIEKDWCDWAMISRPYSTLRDCLEHFAELFDLGFPNPLAERIIFETHQIHFANCSLVQPTFSDPPEDVLLAMIIAPICLIPFLITLVVWRSKDSEAQA
B2: receptor activity-modifying protein 3 (RAMP3), C-tagged Cerulean (natural protein)
chain: RAGGCNETGMLERLPLCGKAFADMMGKVDVWKWCNLSEFIVYYESFTNCTEMEANVVGCYWPNPLAQGFITGIHRQFFSNCTVDRVHLEDPPDEVLIPLIVIPVVLTVAMAGLVVWRSKRTDTLL

Target: T1, parathyroid hormone 1 receptor (PTH1R), C-tagged Citrine (human, UniProt Q03431 27-593)
T1 sequence: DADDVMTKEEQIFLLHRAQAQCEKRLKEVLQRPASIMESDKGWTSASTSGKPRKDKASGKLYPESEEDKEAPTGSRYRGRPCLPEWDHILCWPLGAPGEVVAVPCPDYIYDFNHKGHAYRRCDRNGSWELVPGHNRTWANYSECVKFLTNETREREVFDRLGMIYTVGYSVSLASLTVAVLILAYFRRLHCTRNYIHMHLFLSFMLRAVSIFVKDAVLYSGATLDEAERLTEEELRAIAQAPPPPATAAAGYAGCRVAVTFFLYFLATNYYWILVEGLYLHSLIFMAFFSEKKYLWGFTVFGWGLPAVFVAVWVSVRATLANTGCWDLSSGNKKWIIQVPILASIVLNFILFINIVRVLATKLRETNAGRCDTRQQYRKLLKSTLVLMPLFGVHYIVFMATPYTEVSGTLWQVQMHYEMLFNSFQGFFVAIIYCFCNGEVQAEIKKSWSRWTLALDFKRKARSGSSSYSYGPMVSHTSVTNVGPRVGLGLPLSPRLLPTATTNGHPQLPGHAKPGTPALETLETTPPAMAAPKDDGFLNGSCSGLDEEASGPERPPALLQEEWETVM
Assay: FRET or BRET

| Binder | stoichiometry N |
| --- | --- |
| B1 | ~1 RAMP2 per PTH1R |
| B2 | ~2 RAMP3 per PTH1R |
